Test results as given in patent publication US12643954B2, “Anti-CD36 antibodies and their use to treat cancer” (ONA Therapeutics, S.L., priority 2020, dated 2026).

Key:
FaDu cells = experiment: FaDu orthotopic mouse model of oral cancer metastasis; format: in vivo
Procedure: NOD scid gamma (NSG) (NOD.Cg-Prkdc^scidII2rg^tm1Wj1/SzJ) mice were purchased from Charles River and crossed in-house. All mice were housed under a regimen of 12h light/12h dark cycles and SPF conditions, and all procedures were evaluated and approved by the CEEA (Ethical Committee for Animal Experimentation) from the Government of Catalunya. SCC intra-tongue injection was performed as previously described (Oskarsson et al., 2014; Nieman et al., 2011). Briefly, mice were anesthetized by intraperitoneal injection with a mixture of 50 mg per kg of ketamine and 0.5 mg per kg of medetomidin, and SCC cells resuspended in 30 μl PBS were injected into each mouse tongue with a BD ultra-fine 6 mm needle. Mice were monitored for the luciferase bioluminescent signal immediately after injection (TO) and once weekly thereafter with a Xenogen IVIS Imaging System-100 (Caliper Life Sciences). Briefly, animals were injected by retro-orbital injection with 50 μl of D-luciferin (Promega) diluted in 1×PBS at 5 mg ml^−1. Continuous administration of isofluorane gas was provided to ensure anesthetizing animals during imaging. Data was quantified with the Living Image software version 4.4 (Caliper Life Sciences). Quantifications were calculated with unsaturated pixels. Color scale minimum and maximum values are shown in pictures.
Studies on the combination of the effects of the ONA-0-v1 anti-CD36 antibody, both with and without cisplatin, were performed in NSG mice (immuno-deficient). The studies included both male and female mice. All mice were inoculated with commercially available FaDu (ATCC) cancer cells, transduced with a retroviral vector expressing luciferase and the green fluorescent protein (Luc-GFP). FaDu cells were derived from a squamous cell carcinoma (i.e., from an oral cancer). Prior to inoculation, the FaDu cells were cultured in a humidified incubator at 37° C. with 5% CO2, and were grown in EMEM (LONZA) supplemented with 5 μg ml^−1 penicillin/streptomycin and 10% FBS (GIBCO).
For each mouse, 100,000 FaDu cells were inoculated via orthotopic injection.
Treatment of the inoculated mice began nine days after inoculation with the cancer cells. Inoculated mice were divided into four distinct treatment groups.
Antibody treatments were administered via intraperitoneal (i.p.) injection daily at a dose of 1 mg/kg. Cisplatin was administered twice weekly at a dose of 2 mg/kg (Groups 2 and 4). […] During the course of treatment, mice were observed once weekly using an in vivo imaging system (IVIS). Further, mouse body weight was measured twice weekly to update appropriate dosage amounts. At the end of the treatment period, the mice were sacrificed, and organs and tissues were collected for performance of immunohistochemistry analysis.

OVCAR-3 cells = experiment: OVCAR-3 orthotopic mouse model of ovarian cancer (Example 7); format: in vivo
Procedure: Studies of the effects of the ONA-0-v1 anti-CD36 antibody on ovarian cancer were performed in NSG mice (immuno-deficient). The studies included only female mice. All mice were inoculated with commercially available OVCAR-3 (ATCC) cancer cells. OVCAR-3 cells were derived from a human progressive adenocarcinoma of the ovary (i.e., from an ovarian cancer). Prior to inoculation, the OVCAR-3 cells were cultured in a humidified incubator at 37° C. with 5% CO2, and were grown in RPMI-1640 supplemented with 5 μg ml^−1 penicillin/streptomycin, 0.01 mg/ml bovine inulin and 20% FBS (GIBCO).
For each mouse, a piece of an OVCAR-3 xenograft was implanted orthotopically. […] Mice implanted with OVCAR-3 also develop metastases in both the peritoneal wall and liver.
Treatment of the implanted mice began 23 days after implantation with the OVCAR-3 tumor pieces. Inoculated mice were divided into one of two treatment groups: vehicle injection control (n=9) or ONA-0-v1 treatment (n=9). Antibody treatments were administered via intraperitoneal (i.p.) injection daily at a dose of 3 mg/kg, while control mice received an equal volume of vehicle on the same schedule. Mice were sacrificed at the end of the treatment period. Upon sacrifice, organs and tissues were collected for performance of immunohistochemistry analysis.

[1] = target: T1, cells overexpressing human CD36 (Homo sapiens, UniProt P16671); experiment: FACS binding to cells overexpressing human CD36
T1 construct: expressed in transfected cells
T1 sequence (P16671 whole entry): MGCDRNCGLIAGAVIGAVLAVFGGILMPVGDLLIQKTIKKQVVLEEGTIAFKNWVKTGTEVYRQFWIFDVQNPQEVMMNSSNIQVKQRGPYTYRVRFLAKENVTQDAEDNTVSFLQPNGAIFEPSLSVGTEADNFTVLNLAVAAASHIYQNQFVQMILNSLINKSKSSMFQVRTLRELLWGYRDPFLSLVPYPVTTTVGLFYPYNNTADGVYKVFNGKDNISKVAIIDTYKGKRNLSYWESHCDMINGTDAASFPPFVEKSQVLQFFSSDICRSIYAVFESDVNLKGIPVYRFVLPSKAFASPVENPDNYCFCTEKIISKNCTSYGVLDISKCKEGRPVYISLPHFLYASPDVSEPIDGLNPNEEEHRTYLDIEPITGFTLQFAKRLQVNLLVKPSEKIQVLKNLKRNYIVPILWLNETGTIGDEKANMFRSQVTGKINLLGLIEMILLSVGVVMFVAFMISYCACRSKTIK
Procedure: For FACS analysis, cells were trypsinized, collected in a 15 mL tube and diluted in washing buffer (2% FBS in PBS). Cells were then centrifuged at 1500 rpm for 5 min at 4° C., supernatant was discarded, and cells were resuspended in fresh washing buffer. Anti-CD36 antibodies were either omitted (control wash buffer treatment) or serially diluted in washing buffer (dilution range up to 100 nM), and then added to the cells. Incubation was performed on ice for 1 hour. Cells were then centrifuged at 1500 rpm for 5 min at 4° C., supernatant was discarded, and cells were resuspended in fresh washing buffer. Finally, cells were incubated with a […] (BV421 Rat Anti-Mouse IgA, Becton Dickinson, reference 743293) diluted 1:100 in washing buffer, washed and analysed by FACS.

mouse CD36 = target: T2, mouse CD36 (Mus musculus, UniProt Q08857); experiment: ELISA binding to plate-coated mouse CD36; conditions: recombinant mouse CD36 coated plates
T2 construct: purchased Sino Biological 50422-M08H
T2 sequence (Q08857 30-439 limits assumed): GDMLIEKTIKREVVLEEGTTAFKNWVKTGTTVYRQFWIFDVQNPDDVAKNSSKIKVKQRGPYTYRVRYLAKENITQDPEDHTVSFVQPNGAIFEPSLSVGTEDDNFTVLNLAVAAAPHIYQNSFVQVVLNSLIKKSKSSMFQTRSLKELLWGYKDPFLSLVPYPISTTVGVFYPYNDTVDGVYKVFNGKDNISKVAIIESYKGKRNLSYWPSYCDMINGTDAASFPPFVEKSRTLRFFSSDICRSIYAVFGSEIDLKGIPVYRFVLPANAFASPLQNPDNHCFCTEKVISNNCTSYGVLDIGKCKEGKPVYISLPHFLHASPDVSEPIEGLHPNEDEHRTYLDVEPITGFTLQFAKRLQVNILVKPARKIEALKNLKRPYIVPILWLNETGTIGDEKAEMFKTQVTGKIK
Procedure: To perform ELISA assays, 96-well ELISA plates were coated over night with human CD36 (Sino Biological, reference 10752-H08H) or mouse CD36 (Sino Biological, reference 50422-M08H) recombinant proteins at a concentration of 0.25 mg/ml. After two washes with PBS, plates were blocked with 4% skimmed milk in PBS for 1 hour at 37° C. Blocking solution was discarded and plates were washed five times with 200 μl/well PBS-Tween20 (0.5%). Primary antibodies were either omitted (control blocking solution treatment) or mixed in blocking solution at several dilutions ranging from 0.01 nM to 0.5 μM. The primary antibody solutions were added to the wells and incubated over night at 4° C. After 5 washes with 200 ul/well of PBS-Tween20 (0.5%), plates were incubated for 1 hour at room temperature with a goat anti-mouse HRP-conjugated antibody (Abeam, reference ab97235) diluted 1:2000 in blocking solution. Plates were then washed 5 times with 200 μl/well of PBS-Tween20 (0.5%), incubated with 100 μl/well TMB and detected after 10 minutes, 30 minutes, or 60 minutes with a spectrophotometer at a wave length of 630 nm.

[2] = antibody alone 1 mg/kg i.p. daily
[3] = antibody in combination with cisplatin

B1: ONA-0-v1: murine IgA anti-CD36 antibody; heavy chain SEQ ID NO: 5, light chain SEQ ID NO: 7 (antibody)
heavy: QVQLKQSGADLVRPGASVKLSCKASGYTFTDYYINWVKQRPGQGLEWIARIYPGSGNTYYNEKFKGKATLTAEKSSSTAYMQLSSLTSEDSAVYFCARGIGGGFGMDYWGQGTSVTVSSESARNPTIYPLTLPPVLCSDPVIIGCLIHDYFPFGTMNVTWGKSGKDITTVNFPPALASGGRYTMSSQLTLPAVECPEGESVKCSVQHDSNPVQELDVNCSPTPPPPITIPSCQPSLSLQRPALEDLLLGSDASITCTLNGLRNPEGAAFTWEPSTGKDAVQKKAAQNSCGCYSVSSVLPGCAERWNSGASFKCTVTHPESGTLTGTIAKVTVNTFPPQVHLLPPPSEELALNELLSLTCLVRAFNPKEVLVRWLHGNEELSPESYLVFEPLKEPGEGATTYLVTSVLRVSAETWKQGDQYSCMVGHEALPMNFTQKTIDRLSGKPTNVSVSVIMSEGDGICY
light: SIVMTQTPKFLLVSAGDRITITCKASQSVSDDVAWYQQKPGQSPKLLIYYASNRYTGVPDRFTGSGYGTDFTFTISTVQAEDLAVYFCQQDYSSPLTFGAGTKLEIKRADAAPTVSIFPPSSEQLTSGGASVVCFLNNFYPKDINVKWKIDGSERQNGVLNSWTDQDSKDSTYSMSSTLTLTKDEYERHNSYTCEATHKTSTSPIVKSFNRNEC
modifications: ONA-0-v1 heavy chain; ONA-0-v1 light chain
tolerability over the course of treatment (FaDu cells; NSG mice): well-tolerated
effect on mouse body weight relative to isotype control (FaDu cells; antibody alone): did not have any effects
effect on platelet count relative to isotype control (FaDu cells; antibody alone): did not have any effects
growth of lymph node metastases (IVIS relative intensity) (FaDu cells; [2]): able to inhibit growth
inhibition of lymph node metastatic tumor growth relative to IgA isotype control (ratio of IVIS intensity end/start) (FaDu cells; [2]): greater than 50%
effect on cisplatin-mediated weight loss and decrease in platelet count (FaDu cells; [3]): did not significantly enhance
growth of lymph node metastases (IVIS relative intensity) (FaDu cells; [3]): almost complete inhibition
mice in which metastasis into lymph nodes was prevented (FaDu cells; antibody in combination with cisplatin, eight tested mice): five of the eight
mice in which metastasis into lymph nodes was prevented (FaDu cells; single agent, eight tested mice per group): one of the eight
effect on primary tumor (IVIS imaging and H&E staining) (FaDu cells; single agent, antibody 1 mg/kg i.p. daily, cisplatin 2 mg/kg twice weekly): did not have a statistically significant effect
average primary tumor weight (OVCAR-3 cells; 3 mg/kg i.p. daily): 1.058 g
decrease of primary tumor weight vs vehicle (OVCAR-3 cells; 3 mg/kg i.p. daily): 43%
SR (Sirius red) positive area of primary tumors (OVCAR-3 cells; collagenous and fibrotic areas): 22.5%
percent necrosis of primary tumors (OVCAR-3 cells; histology, pathologist quantification): approximately 40.71%
animals with large metastasis (>5 mm) in the peritoneal wall (OVCAR-3 cells; macroscopic analysis): no large metastasis were detected
animals with no metastasis in the peritoneal wall (OVCAR-3 cells; macroscopic analysis): 63%
animals with small metastasis (1-2 mm) in the peritoneal wall (OVCAR-3 cells; macroscopic analysis): 38%
large liver metastasis (OVCAR-3 cells; macroscopic analysis): 6%
mice without metastasis in the liver (OVCAR-3 cells; macroscopic analysis): 50%
small liver metastasis (OVCAR-3 cells; macroscopic analysis): 44%
binding to cells overexpressing human CD36 (FACS) ([1]; antibodies at 100 nM): bound equivalently
binding to cells overexpressing human CD36 (FACS) ([1]; serial dilution up to 100 nM): specifically bound
binding to mouse CD36 in ELISA (mouse CD36): able to specifically bind
